Laboratory results taken from publication PMC10214136 (Proceedings of the National Academy of Sciences of the …, 2023).
Substitutions are numbered along the chain they refer to. In names and notes the source's numbering stands. Where two headings read alike, the source gives them in different places.

Key:
[1] = target: FtsEX complex (Pseudomonas aeruginosa), wild type, in peptidiscs (Pseudomonas aeruginosa); test: cryo-EM structure
[2] = substrate: Nc1ncnc2c1ncn2[C@@H]1O[C@H](COP(=O)(O)OP(=O)(O)OP(=O)(O)O)[C@@H](O)[C@H]1O; test: purified protein; conditions: ATP/MgCl2, pH 7.5, 37 °C, FtsEX in peptidiscs with EnvC
[3] = target: the molecule itself; test: cryo-EM structure
[4] = target: FtsE^E163QX–EnvC complex (Pseudomonas aeruginosa) (Pseudomonas aeruginosa); test: cryo-EM structure
[5] = target: the molecule itself; test: cryo-EM structure; remark: listed apart in the source
[6] = target: T1, FtsE (Pseudomonas aeruginosa), wild type (Pseudomonas aeruginosa, UniProt A0A069QBX1 1-223); test: co-purification
T1 sequence: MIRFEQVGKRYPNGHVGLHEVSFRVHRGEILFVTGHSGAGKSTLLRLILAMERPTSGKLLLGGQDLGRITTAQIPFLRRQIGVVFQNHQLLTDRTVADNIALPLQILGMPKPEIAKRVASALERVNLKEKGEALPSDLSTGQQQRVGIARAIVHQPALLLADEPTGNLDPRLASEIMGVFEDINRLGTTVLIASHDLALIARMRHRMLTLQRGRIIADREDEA

In the case of “EnvC (Pseudomonas aeruginosa), envC^Δ19 construct, wild type (natural protein)”, the stoichiometry N (EnvC per FtsE2-FtsX2 complex) [1] is reported as 1.

B1: FtsEX/EnvC (FtsEX–EnvC complex) (Pseudomonas aeruginosa PAO1) (protein)
chain: T1 sequence
B1 gave a Km [2] of 230 µM.

B2: FtsE^E163Q (Pseudomonas aeruginosa) (natural protein)
chain: T1 sequence with E163Q
B2 was tested, and the “stoichiometry N” value [3] was 2.

B3: AmiB (Pseudomonas aeruginosa), amiB^Δ29 construct (enzyme)
chain: SLLQAHLSHRSALRSRFRFDPAAVMDCLRAEVLGQDPALQAVEDMLKVVRADIADPRRPLFSALFLGPTGVGKTEIVRALARALHGDAEGFCRVDMNTLSQEHYAAALTGAPPGYVGAKEGTTLLEQDKLDGSPGRPGIVLFDELEKASPEVVHALLNVLDNGLLRVASGERTYHFRNTLVFMTSNLCAHEIQRYDERRQRLPWRLLPVGGERRRRDIDGMVRARLLKTFSPEFVNRLDSVVTFNWIERDVVARLVELEVQRLNRRLEKHRCRLEATPEVLAKIARAGFDRQFGARALRRSVRHHLEVPLAEHLLDHHQPGDGNCTTYLASLEHERVRFVRR
B3 gave a stoichiometry N (AmiB per FtsE2-FtsX2-EnvC complex) [4] of 1.

B4: FtsX (Pseudomonas aeruginosa) (natural protein)
chain: MSANDLPRGPEEGAPERKTREKPSQEQTDWSGSFSAYLESHRASLVDSLRRLFGHPFGSFFTCLVMGITLSLPMGLSLLLNNVERLGGSWQRAAQISLFLDLKTSENQGQDLREQIERLPDVIEAQLISREQALSELQEQSGLGEALKELPENPLPPVISVTPKQIDRAGLEALRQQLAELPHVQQAQLDLVWVERLSAILKLGERFVFGLTILLVLTLLLVVGNTIRLHIENRRNEIEVIKLVGGTDGYVRRPFLYMGALYGLGAGILSWALLAYSLNWLNGSVVNLSGLYGSDFGLQGVPLDDGLSLTVGAVLLGWVGAWLAVARHLRELAPR
For B4, the “stoichiometry N” value [5] was 2 and the “stoichiometry N” value [6] was 1 FtsE:FtsX molar ratio.
